# Measurements reported in article PMC13132547.
# Assays:
# Assay in all cases: cryo-EM structure
# [1] = target: D7324-tagged Delta S (soluble SARS-CoV-2 Delta spike, 6P version) (SARS-CoV-2) (UniProt P0DTC2)
# [2] = target: His-tagged BA.1 S (soluble SARS-CoV-2 Omicron BA.1 spike, 6P version) (SARS-CoV-2) (UniProt P0DTC2)
# [3] = target: StrepII-tagged Wu1 S (soluble SARS-CoV-2 Wuhan-Hu-1 spike, 6P version) (SARS-CoV-2) (UniProt P0DTC2)
substance,measurement,setting,value
"D7324-tagged Delta S (soluble SARS-CoV-2 Delta spike, 6P version) (from UniProt P0DTC2 14-1273) (natural protein)",stoichiometry N,[1],3
"His-tagged BA.1 S (soluble SARS-CoV-2 Omicron BA.1 spike, 6P version) (from UniProt P0DTC2 14-1273) (natural protein)",stoichiometry N,[2],3
"StrepII-tagged Wu1 S (soluble SARS-CoV-2 Wuhan-Hu-1 spike, 6P version) (from UniProt P0DTC2 14-1273) (natural protein)",stoichiometry N,[3],3
